Measured values from patent US20080131497A1, “Formulations of DNase and Methods of Use Thereof” (priority 2006, published 2008).

How the values were obtained:
[1] = system: colony forming units (CFU); conditions: administered by inhalation, CF patients; cited from earlier work
[2] = administered by inhalation, CF patients; cited from earlier work
[3] = system: DNA; experiment: Enzymatic activity of human DNase forms, methyl green (MG) assay; type: biochemical
Source text: Kurnick, Arch. Biochem. 29:41 (1950). […] Thus, by combining the purified deamidated DNases and the purified non-deamidated DNase of the present invention in various proportions, it is possible to prepare pharmaceutical compositions of human DNase having any desired specific activity in the range between the specific activities of the individual components, as may be optimal for treating particular disorders.

[4] = system: DNA; experiment: DNase viscosity assay (DNA digestion); type: biochemical; conditions: DNase 1 μg/mL, 2 mg/mL DNA, 1 mM Ca2+ and Mg2+
Description: At specific time points aliquots of samples were taken from the vials, diluted and analyzed for DNase activity. Enzymatic activity of DNase was determined by viscosity assay. DNA decomposition by DNase results in decrease of viscosity. DNase at 1 μg/mL normally can digest 2 mg/mL DNA resulting in decrease of viscosity from ˜25 cP (5 rpm) to 10 cP in ˜10 min (and to approaching 1 cP in longer time) in presence of 1 mM Ca^2+ and Mg^2+ ions. Kinetics of viscosity change due to degradation of DNA was measured by Brookfield D-II+ Pro viscosimeter at 5 rpm. Results showing increased stability for DNase when stored in the presence of empty liposomes or liposomal encapsulated antiinfective are presented in FIG. 2.
Activity was determined as a reciprocal value of a time to reduce viscosity in half, normalized to activity of standard DNase solution (A=T1/2^std/T1/2). The two curves in FIG. 3 illustrate an activity assay and how T1/2 is determined. The curves represent typical change in viscosity of DNA solution after DNase is added. v1 is viscosity at 1 minute, when the first measurement point is taken. T1/2 is the time interval after adding DNase required to reach viscosity level equal to half of v1.

[5] = system: DNA; experiment: Enzymatic activity of doubly deamidated DNase; type: biochemical; conditions: deamidated at Asn 7 and Asn 74

**Q.** Which results are given for `NC[C@H]1O[C@H](O[C@H]2[C@H](O)[C@@H](O[C@H]3O[C@H](CO)[C@@H](O)[C@H](N)[C@H]3O)[C@H](N)C[C@@H]2N)[C@H](N)C[C@@H]1O` [tobramycin, reference compound]?
**A.** reduction in colony forming units (CFU) [1]: about 2 log units; improvement in FEV1 [2]: approximately 10%

B1: deamidated human DNase: human DNase deamidated at the asparagine residue at position 74 of native mature human DNase (protein, UniProt P24855 23-282, looked up, variant N74D)
Deoxyribonuclease-1: LKIAAFNIQTFGETKMSNATLVSYIVQILSRYDIALVQEVRDSHLTAVGKLLDNLNQDAPDTYHYVVSEPLGRDSYKERYLFVYRPDQVSAVDSYYYDDGCEPCGNDTFNREPAIVRFFSRFTEVREFAIVPLHAAPGDAVAEIDALYDVYLDVQEKWGLEDVMLMGDFNAGCSYVRPSQWSSIRLWTSPTFQWLIPDSADTTATPTHCAYDRIVVAGMLLRGAVVPDSALPFNFQAAYGLSDQLAQAISDHYPVEVMLK
modifications: deamidation
notes: human DNase deamidated at the asparagine residue at position 74 of native mature human DNase
**Q.** With B1 as the molecule, how does the “enzymatic activity compared to non-deamidated human DNase” value [3] read?
**A.** just over half

B2: DNase: recombinant human deoxyribonuclease I, an enzyme which selectively cleaves DNA; standard in viscosity assay (protein, UniProt P24855 23-282, looked up)
Deoxyribonuclease-1: LKIAAFNIQTFGETKMSNATLVSYIVQILSRYDIALVQEVRDSHLTAVGKLLDNLNQDAPDTYHYVVSEPLGRNSYKERYLFVYRPDQVSAVDSYYYDDGCEPCGNDTFNREPAIVRFFSRFTEVREFAIVPLHAAPGDAVAEIDALYDVYLDVQEKWGLEDVMLMGDFNAGCSYVRPSQWSSIRLWTSPTFQWLIPDSADTTATPTHCAYDRIVVAGMLLRGAVVPDSALPFNFQAAYGLSDQLAQAISDHYPVEVMLK
**Q.** Which “time for decrease of viscosity from ~25 cP (5 rpm) to 10 cP” value [4] does the source give for B2 here?
**A.** ~10 min

B3: Pulmozyme: highly purified, commercially available solution of DNase (from Genentech); recombinant human DNase (protein, UniProt P24855 23-282, looked up)
Deoxyribonuclease-1: LKIAAFNIQTFGETKMSNATLVSYIVQILSRYDIALVQEVRDSHLTAVGKLLDNLNQDAPDTYHYVVSEPLGRNSYKERYLFVYRPDQVSAVDSYYYDDGCEPCGNDTFNREPAIVRFFSRFTEVREFAIVPLHAAPGDAVAEIDALYDVYLDVQEKWGLEDVMLMGDFNAGCSYVRPSQWSSIRLWTSPTFQWLIPDSADTTATPTHCAYDRIVVAGMLLRGAVVPDSALPFNFQAAYGLSDQLAQAISDHYPVEVMLK
**Q.** With B3 as the molecule, how does the “improvement in FEV1” value [2] read?
**A.** approximately 10%

B4: doubly deamidated DNase: human DNase deamidated at asparagine position 7 in addition to position 74 (protein, UniProt P24855 23-282, looked up, variant N7D N74D)
Deoxyribonuclease-1: LKIAAFDIQTFGETKMSNATLVSYIVQILSRYDIALVQEVRDSHLTAVGKLLDNLNQDAPDTYHYVVSEPLGRDSYKERYLFVYRPDQVSAVDSYYYDDGCEPCGNDTFNREPAIVRFFSRFTEVREFAIVPLHAAPGDAVAEIDALYDVYLDVQEKWGLEDVMLMGDFNAGCSYVRPSQWSSIRLWTSPTFQWLIPDSADTTATPTHCAYDRIVVAGMLLRGAVVPDSALPFNFQAAYGLSDQLAQAISDHYPVEVMLK
modifications: deamidation
**Q.** Which enzymatic activity [5] does the source give for B4 here?
**A.** enzymatically inactive
